# Measured values reported in patent US20130089497A1 (Genentech, published 2013).
# T1: gD tagged human FcRH1 on SVT2 cells (human, UniProt Q96LA6 17-429)
# T1 construct: whole, on cells; also called huFcRH1; not shown: gD tag
# T1 sequence (looked up): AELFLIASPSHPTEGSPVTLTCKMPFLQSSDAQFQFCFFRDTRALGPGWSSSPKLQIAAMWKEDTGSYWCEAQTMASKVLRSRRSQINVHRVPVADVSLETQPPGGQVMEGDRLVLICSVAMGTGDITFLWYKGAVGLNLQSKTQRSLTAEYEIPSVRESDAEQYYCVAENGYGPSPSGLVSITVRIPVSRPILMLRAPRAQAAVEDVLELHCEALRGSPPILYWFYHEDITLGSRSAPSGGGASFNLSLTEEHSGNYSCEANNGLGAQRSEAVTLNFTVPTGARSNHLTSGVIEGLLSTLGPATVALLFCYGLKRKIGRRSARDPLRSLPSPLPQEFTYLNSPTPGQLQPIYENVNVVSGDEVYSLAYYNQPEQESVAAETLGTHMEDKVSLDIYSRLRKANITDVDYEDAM
# Target: T1, gD tagged human FcRH1 on SVT2 cells
# Assay: FACS, SVT2.MSCV.gD.FcRH1 cells, PE secondary antibody
binder,measurement,value
"murine monoclonal antibody anti-FcRH5-13G9 (antibody, V domains shown, Whole murine IgG from hybridoma; also called 13G9.1.1; mu13G9) VH: EVQLVQSGPELKKPGETVKISCKASGYTFTNYGMNWVKQAPGKGLKWMGWVNTYTGEPTYTDDFKGRFAFSVETSASTVFLQINNLKNEDTATYFCARRSIPYYYAMDYWGQGTSLT VL: DIVMTQSQKIMSTSVGDRVNVTCKASQNVGSNVAWYHQKPGQSPKALIYSASYRYSGVPDRFTGSGSGTDFTLTISNVQSEDLAEYFCQQYKTWTFGGGTKLEIKR",binding result,no binding (tested: 1.0 ug per about 10^6 cells (p-1120))
